Test results from paper PMC11867700, “TANGO2 is an acyl-CoA binding protein” (The Journal of Cell Biology, 2025).

Molecular target: the molecule itself
Test: mass photometry; purified TANGO2.Flag; mass distribution; conditions not described

B1: TANGO2 isoform 1-Flag (TANGO2.Iso1-Flag), purified (natural protein, human, UniProt Q6ICL3-1 1-276, looked up)
chain: MCIIFFKFDPRPVSKNAYRLILAANRDEFYSRPSKLADFWGNNNEILSGLDMEEGKEGGTWLGISTRGKLAALTNYLQPQLDWQARGRGELVTHFLTTDVDSLSYLKKVSMEGHLYNGFNLIAADLSTAKGDVICYYGNRGEPDPIVLTPGTYGLSNALLETPWRKLCFGKQLFLEAVERSQALPKDVLIASLLDVLNNEEAQLPDPAIEDQGGEYVQPMLSKYAAVCVRCPGYGTRTNTIILVDADGHVTFTERSMMDKDLSHWETRTYEFTLQS
notes: TANGO2 isoform 1, human, UniProt Q6ICL3-1; C-terminal in-frame fusion with the Flag peptide; also called TANGO2.Flag; purified TANGO2
**Q.** Does B1 bind?
**A.** binds
